Target: T1, YTHDF3 (mouse, UniProt Q8BYK6 1-585)
T1 sequence: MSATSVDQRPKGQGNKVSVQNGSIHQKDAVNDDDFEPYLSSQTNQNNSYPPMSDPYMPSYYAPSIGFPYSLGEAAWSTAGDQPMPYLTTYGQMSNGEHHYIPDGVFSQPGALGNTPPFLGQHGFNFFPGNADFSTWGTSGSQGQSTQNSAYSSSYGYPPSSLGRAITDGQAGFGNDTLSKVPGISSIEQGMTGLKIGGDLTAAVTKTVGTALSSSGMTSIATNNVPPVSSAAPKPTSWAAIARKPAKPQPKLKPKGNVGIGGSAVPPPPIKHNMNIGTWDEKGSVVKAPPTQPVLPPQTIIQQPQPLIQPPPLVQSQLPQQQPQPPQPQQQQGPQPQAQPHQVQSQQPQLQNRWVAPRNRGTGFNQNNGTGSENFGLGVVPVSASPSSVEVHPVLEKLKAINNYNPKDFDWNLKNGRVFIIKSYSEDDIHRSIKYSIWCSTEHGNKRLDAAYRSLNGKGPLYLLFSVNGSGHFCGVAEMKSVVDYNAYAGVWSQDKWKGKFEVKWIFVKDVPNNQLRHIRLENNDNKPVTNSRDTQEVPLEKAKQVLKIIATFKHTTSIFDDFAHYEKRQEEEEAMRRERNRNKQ
Assay: EMSA; LightShift Chemiluminescent RNA EMSA kit; 20 pmol RNA, 6 ug YTHDF3, room temperature 30 min; 6% TBE gel, 0.5x TBE; buffer salt and pH not stated
Settings: protein: commercial; label: 5' biotin

B1: Foxo3-CDS-m6A-biotin-RNAProbe 1 (ssRNA)
RNA: GUGACUUGGACCUGGAC
modifications: m6A at A4, A10, A16 (from text sites 2151, 2158, 2163 nt; the modified probe line is not in the material)
  binding result: binds

From PMC9532426, “Autophagy induction promoted by m6A reader YTHDF3 through translation upregulation of FOXO3 mRNA”
